Measured values: patent publication US20100184648A1 (published 2010)

Columns and labels:
Test in all cases: receptor inhibition assay at 10 µM Compound A, ratio relative to a control compound
Neuropeptide Y1 receptor = molecular target: Neuropeptide Y1 receptor
Description: (§1) The inhibitory action of Compound A against various receptors listed in Table 2 was examined to evaluate the specificity of Compound A. The activities of the receptors were measured by using an appropriate assay system according to the property of the respective receptors. Further, the evaluation results of Compound A were calculated as an inhibition ratio at a final concentration of 10 μM. Here, the inhibition ratio was calculated based on a value of a control compound in each assay. As is apparent from the results shown in Table 2, it was confirmed that Compound A is specific to an MCH receptor. Incidentally, examination was carried out with regard to 173 kinds of physiologically functional proteins including the receptors shown in Table 2, however, the affinity thereof could not be found other than the MCH receptors, and only major receptors are shown in Table 2.

Glutamate AMPA receptor = molecular target: Glutamate AMPA receptor
Description: as §1

Histamine H3 receptor = molecular target: Histamine H3 receptor
Description: as §1

Muscarine M1 receptor = molecular target: Muscarine M1 receptor
Description: as §1

Inhibition ratio (Neuropeptide Y1 receptor): 17
Inhibition ratio (Glutamate AMPA receptor): 8
Inhibition ratio (Histamine H3 receptor): -6
Inhibition ratio (Muscarine M1 receptor): 0
B1: Compound A (peptide)
peptide: RCMXRVYXC
modifications: N-terminal acetyl on Arg 1 (printed Arg-C(=O)CH3); C-terminal amide on Cys 9 (printed H2N-Cys); X at positions 4 and 8 = Ava (5-aminovaleric acid); the two Cys residues (2 and 9) are bound to each other through a -SS- bond
notes: Synthetic cyclic peptide with two non-natural Ava residues; The direction of the printed formula is interpreted; also called MCH1R antagonist; H2N-Cys-Ava-Tyr-Val-Arg-Ava-Met-Cys-Arg-C(=O)CH3
